Data from US20030039658.

Assays:
[1] = molecular target: FLAG-tagged DSIF p160 (FT-DSIFp160) (UniProt O00267)
[2] = molecular target: RPB1, the largest (220 kDa) subunit of Pol II, within purified Pol II (UniProt P24928)
[3] = molecular target: rGST-CTD, recombinant glutathione-S-transferase fusion protein containing a portion of the CTD of RPB1 of Pol II (UniProt P24928)

Chain of Cyclin T1 (chain, as listed by the source): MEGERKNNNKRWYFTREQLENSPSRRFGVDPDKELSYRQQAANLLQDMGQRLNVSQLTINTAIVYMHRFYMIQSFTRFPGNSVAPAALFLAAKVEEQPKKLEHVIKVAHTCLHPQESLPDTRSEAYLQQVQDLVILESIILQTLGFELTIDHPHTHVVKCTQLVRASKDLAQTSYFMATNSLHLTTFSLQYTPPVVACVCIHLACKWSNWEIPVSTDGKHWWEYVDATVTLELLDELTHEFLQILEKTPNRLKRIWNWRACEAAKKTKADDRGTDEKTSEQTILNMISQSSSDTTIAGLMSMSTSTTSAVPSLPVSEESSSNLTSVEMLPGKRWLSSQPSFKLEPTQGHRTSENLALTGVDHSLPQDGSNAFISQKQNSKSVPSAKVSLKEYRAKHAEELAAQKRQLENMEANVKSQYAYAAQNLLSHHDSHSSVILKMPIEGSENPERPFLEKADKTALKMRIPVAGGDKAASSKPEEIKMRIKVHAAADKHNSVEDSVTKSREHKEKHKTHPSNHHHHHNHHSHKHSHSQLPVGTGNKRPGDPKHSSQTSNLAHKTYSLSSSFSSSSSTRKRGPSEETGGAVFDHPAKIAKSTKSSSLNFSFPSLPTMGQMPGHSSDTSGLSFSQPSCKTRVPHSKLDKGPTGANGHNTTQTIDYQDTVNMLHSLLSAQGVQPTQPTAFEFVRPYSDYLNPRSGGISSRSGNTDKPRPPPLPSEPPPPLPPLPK

Substance	in vitro kinase assay (autophosphorylation of the preparation) (Cyclin T1)	in vitro kinase assay (phosphorylation of the substrate) [1]	in vitro kinase assay (phosphorylation of the substrate) [2]	in vitro kinase assay (phosphorylation of the substrate) [3]
FLAG-tagged CDK9 (FT-CDK9)	The FT-CDK9 immunopurification autophosphorylates specific components circa 45 kD and 87 kD, consistent with the molecular weights expected for Cyclin T1 and a FT-CDK9	the immunopurified f:CDK9 actively phosphorylated a circa 160 kDa polypeptide, most likely f:DSIF p160, within an immunopurified f:DSIF p160 preparation	The f:CDK9 immunopurified preparation was able to phosphorylate both rGST-CTD and RPB1 within Pol II	The f:CDK9 immunopurified preparation was able to phosphorylate both rGST-CTD and RPB1 within Pol II
FLAG-tagged CDK9M (FT-CDK9M), CDK9 with the D167N mutation	The FT-CDK9M immunopurification was significantly weaker in its ability to autophosphorylate the 87 kD band	–	significantly impaired in its ability to phosphorylate either rGST-CTD or RPB1 within Pol II	significantly impaired in its ability to phosphorylate either rGST-CTD or RPB1 within Pol II
